Test results reported in PMC11908486.
pKd: −log10 of the molar value.

Target: bACE2_(Ra5538)-Fc (Rhinolophus affinis)
Experiment: BLI

Substance: SARS-CoV-2-RBD-monomer (from UniProt P0DTC2) (domain or fragment)
- pKd: 6.15
